# Measured values reported in patent US20030229005A1.
# Assays:
# Test in all cases: cell-based or functional assay
# collagenase 1 = collagenase 1 (UniProt P03956)
# gelatinase B = gelatinase B (UniProt P14780)
# [1] = target: human Collagenase-3 (human) (UniProt P45452)
# Sequence of collagenase 1 (P03956 100-469 limits assumed): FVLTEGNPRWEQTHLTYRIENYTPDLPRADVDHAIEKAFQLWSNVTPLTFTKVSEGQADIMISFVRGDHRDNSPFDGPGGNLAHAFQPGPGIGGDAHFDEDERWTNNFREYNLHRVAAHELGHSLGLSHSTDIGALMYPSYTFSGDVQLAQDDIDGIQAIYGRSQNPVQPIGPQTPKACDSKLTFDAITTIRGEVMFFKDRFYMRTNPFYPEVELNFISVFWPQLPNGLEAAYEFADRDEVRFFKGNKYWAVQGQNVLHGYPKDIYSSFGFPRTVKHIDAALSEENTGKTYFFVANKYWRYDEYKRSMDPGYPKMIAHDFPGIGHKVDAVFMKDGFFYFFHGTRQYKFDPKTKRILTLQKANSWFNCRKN
# Sequence of gelatinase B (P14780 107-707 limits assumed): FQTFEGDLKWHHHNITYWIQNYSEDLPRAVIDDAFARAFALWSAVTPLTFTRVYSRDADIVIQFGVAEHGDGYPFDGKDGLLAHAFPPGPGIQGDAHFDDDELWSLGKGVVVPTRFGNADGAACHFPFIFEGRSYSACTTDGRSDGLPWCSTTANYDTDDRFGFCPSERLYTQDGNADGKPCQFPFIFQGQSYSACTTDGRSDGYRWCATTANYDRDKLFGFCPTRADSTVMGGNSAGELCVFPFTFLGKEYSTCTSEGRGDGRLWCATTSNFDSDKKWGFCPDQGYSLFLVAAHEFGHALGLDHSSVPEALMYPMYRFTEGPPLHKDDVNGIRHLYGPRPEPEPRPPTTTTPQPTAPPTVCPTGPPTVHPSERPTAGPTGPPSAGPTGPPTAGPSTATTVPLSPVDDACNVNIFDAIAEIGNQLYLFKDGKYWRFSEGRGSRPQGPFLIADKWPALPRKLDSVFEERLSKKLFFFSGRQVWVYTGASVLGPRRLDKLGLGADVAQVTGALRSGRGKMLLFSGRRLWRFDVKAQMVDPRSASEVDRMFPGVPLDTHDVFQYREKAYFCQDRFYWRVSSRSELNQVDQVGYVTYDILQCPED
substance,measurement,setting,value
bovine type II collagen (from UniProt P02459 182-1241),"Average Percent Inhibition from 1.1 to 6.6 Hours, Type II Collagen 0.18 ug/ml",collagenase 1,0%
same,"Average Percent Inhibition from 1.1 to 6.6 Hours, Type II Collagen 0.54 ug/ml",collagenase 1,3%
same,"Average Percent Inhibition from 1.1 to 6.6 Hours, Type II Collagen 1.63 ug/ml",collagenase 1,0%
same,"Average Percent Inhibition from 1.1 to 6.6 Hours, Type II Collagen 4.89 ug/ml",collagenase 1,2%
same,"Average Percent Inhibition from 1.1 to 6.6 Hours, Type II Collagen 14.67 ug/ml",collagenase 1,10%
same,"Average Percent Inhibition from 1.1 to 6.6 Hours, Type II Collagen 44.00 ug/ml",collagenase 1,15%
same,"Average Percent Inhibition, 0.10-1.10 h, TypeIICOL 1.6 ug/ul",collagenase 1,19%
same,"Average Percent Inhibition, 0.10-1.10 h, TypeIICOL 4.9 ug/ul",collagenase 1,37%
same,"Average Percent Inhibition, 0.10-1.10 h, TypeIICOL 15 ug/ul",collagenase 1,44%
same,"Average Percent Inhibition, 0.10-1.10 h, TypeIICOL 44 ug/ul",collagenase 1,50%
same,"Average Percent Inhibition, 0.10-1.10 h, TypeIICOL .18 ug/ul",collagenase 1,17%
same,"Average Percent Inhibition, 0.10-1.10 h, TypeIICOL .55 ug/ul",collagenase 1,15%
same,"Average Percent Inhibition, 1.10-2.10 h, TypeIICOL 1.6 ug/ul",collagenase 1,6%
same,"Average Percent Inhibition, 1.10-2.10 h, TypeIICOL 4.9 ug/ul",collagenase 1,13%
same,"Average Percent Inhibition, 1.10-2.10 h, TypeIICOL 15 ug/ul",collagenase 1,21%
same,"Average Percent Inhibition, 1.10-2.10 h, TypeIICOL 44 ug/ul",collagenase 1,29%
same,"Average Percent Inhibition, 1.10-2.10 h, TypeIICOL .18 ug/ul",collagenase 1,3%
same,"Average Percent Inhibition, 1.10-2.10 h, TypeIICOL .55 ug/ul",collagenase 1,6%
same,"Average Percent Inhibition, 2.10-3.10 h, TypeIICOL 1.6 ug/ul",collagenase 1,0%
same,"Average Percent Inhibition, 2.10-3.10 h, TypeIICOL 4.9 ug/ul",collagenase 1,3%
same,"Average Percent Inhibition, 2.10-3.10 h, TypeIICOL 15 ug/ul",collagenase 1,12%
same,"Average Percent Inhibition, 2.10-3.10 h, TypeIICOL 44 ug/ul",collagenase 1,18%
same,"Average Percent Inhibition, 2.10-3.10 h, TypeIICOL .18 ug/ul",collagenase 1,0%
same,"Average Percent Inhibition, 2.10-3.10 h, TypeIICOL .55 ug/ul",collagenase 1,3%
same,"Average Percent Inhibition, 3.10-4.10 h, TypeIICOL 1.6 ug/ul",collagenase 1,-2%
same,"Average Percent Inhibition, 3.10-4.10 h, TypeIICOL 4.9 ug/ul",collagenase 1,0%
same,"Average Percent Inhibition, 3.10-4.10 h, TypeIICOL 15 ug/ul",collagenase 1,8%
same,"Average Percent Inhibition, 3.10-4.10 h, TypeIICOL 44 ug/ul",collagenase 1,12%
same,"Average Percent Inhibition, 3.10-4.10 h, TypeIICOL .18 ug/ul",collagenase 1,-1%
same,"Average Percent Inhibition, 3.10-4.10 h, TypeIICOL .55 ug/ul",collagenase 1,2%
same,"Average Percent Inhibition, 4.10-5.10 h, TypeIICOL 1.6 ug/ul",collagenase 1,-3%
same,"Average Percent Inhibition, 4.10-5.10 h, TypeIICOL 4.9 ug/ul",collagenase 1,-2%
same,"Average Percent Inhibition, 4.10-5.10 h, TypeIICOL 15 ug/ul",collagenase 1,6%
same,"Average Percent Inhibition, 4.10-5.10 h, TypeIICOL 44 ug/ul",collagenase 1,9%
same,"Average Percent Inhibition, 4.10-5.10 h, TypeIICOL .18 ug/ul",collagenase 1,-1%
same,"Average Percent Inhibition, 4.10-5.10 h, TypeIICOL .55 ug/ul",collagenase 1,1%
same,"Average Percent Inhibition, 5.10-6.10 h, TypeIICOL 1.6 ug/ul",collagenase 1,-4%
same,"Average Percent Inhibition, 5.10-6.10 h, TypeIICOL 4.9 ug/ul",collagenase 1,-4%
same,"Average Percent Inhibition, 5.10-6.10 h, TypeIICOL 15 ug/ul",collagenase 1,4%
same,"Average Percent Inhibition, 5.10-6.10 h, TypeIICOL 44 ug/ul",collagenase 1,7%
same,"Average Percent Inhibition, 5.10-6.10 h, TypeIICOL .18 ug/ul",collagenase 1,-1%
same,"Average Percent Inhibition, 5.10-6.10 h, TypeIICOL .55 ug/ul",collagenase 1,1%
same,"Average Percent Inhibition from 1.1 to 6.6 Hours, Type II Collagen 0.18 ug/ml",gelatinase B,9%
same,"Average Percent Inhibition from 1.1 to 6.6 Hours, Type II Collagen 0.54 ug/ml",gelatinase B,9%
same,"Average Percent Inhibition from 1.1 to 6.6 Hours, Type II Collagen 1.63 ug/ml",gelatinase B,12%
same,"Average Percent Inhibition from 1.1 to 6.6 Hours, Type II Collagen 4.89 ug/ml",gelatinase B,38%
same,"Average Percent Inhibition from 1.1 to 6.6 Hours, Type II Collagen 14.67 ug/ml",gelatinase B,65%
same,"Average Percent Inhibition from 1.1 to 6.6 Hours, Type II Collagen 44.00 ug/ml",gelatinase B,84%
same,"Average Percent Inhibition, 0.10-1.10 h, TypeIICOL 1.6 ug/ul",gelatinase B,-28%
same,"Average Percent Inhibition, 0.10-1.10 h, TypeIICOL 4.9 ug/ul",gelatinase B,35%
same,"Average Percent Inhibition, 0.10-1.10 h, TypeIICOL 15 ug/ul",gelatinase B,57%
same,"Average Percent Inhibition, 0.10-1.10 h, TypeIICOL 44 ug/ul",gelatinase B,41%
same,"Average Percent Inhibition, 0.10-1.10 h, TypeIICOL .18 ug/ul",gelatinase B,3%
same,"Average Percent Inhibition, 0.10-1.10 h, TypeIICOL .55 ug/ul",gelatinase B,3%
same,"Average Percent Inhibition, 1.10-2.10 h, TypeIICOL 1.6 ug/ul",gelatinase B,14%
same,"Average Percent Inhibition, 1.10-2.10 h, TypeIICOL 4.9 ug/ul",gelatinase B,43%
same,"Average Percent Inhibition, 1.10-2.10 h, TypeIICOL 15 ug/ul",gelatinase B,67%
same,"Average Percent Inhibition, 1.10-2.10 h, TypeIICOL 44 ug/ul",gelatinase B,82%
same,"Average Percent Inhibition, 1.10-2.10 h, TypeIICOL .18 ug/ul",gelatinase B,12%
same,"Average Percent Inhibition, 1.10-2.10 h, TypeIICOL .55 ug/ul",gelatinase B,10%
same,"Average Percent Inhibition, 2.10-3.10 h, TypeIICOL 1.6 ug/ul",gelatinase B,19%
same,"Average Percent Inhibition, 2.10-3.10 h, TypeIICOL 4.9 ug/ul",gelatinase B,47%
same,"Average Percent Inhibition, 2.10-3.10 h, TypeIICOL 15 ug/ul",gelatinase B,72%
same,"Average Percent Inhibition, 2.10-3.10 h, TypeIICOL 44 ug/ul",gelatinase B,87%
same,"Average Percent Inhibition, 2.10-3.10 h, TypeIICOL .18 ug/ul",gelatinase B,11%
same,"Average Percent Inhibition, 2.10-3.10 h, TypeIICOL .55 ug/ul",gelatinase B,12%
same,"Average Percent Inhibition, 3.10-4.10 h, TypeIICOL 1.6 ug/ul",gelatinase B,15%
same,"Average Percent Inhibition, 3.10-4.10 h, TypeIICOL 4.9 ug/ul",gelatinase B,41%
same,"Average Percent Inhibition, 3.10-4.10 h, TypeIICOL 15 ug/ul",gelatinase B,69%
same,"Average Percent Inhibition, 3.10-4.10 h, TypeIICOL 44 ug/ul",gelatinase B,87%
same,"Average Percent Inhibition, 3.10-4.10 h, TypeIICOL .18 ug/ul",gelatinase B,9%
same,"Average Percent Inhibition, 3.10-4.10 h, TypeIICOL .55 ug/ul",gelatinase B,10%
same,"Average Percent Inhibition, 4.10-5.10 h, TypeIICOL 1.6 ug/ul",gelatinase B,11%
same,"Average Percent Inhibition, 4.10-5.10 h, TypeIICOL 4.9 ug/ul",gelatinase B,35%
same,"Average Percent Inhibition, 4.10-5.10 h, TypeIICOL 15 ug/ul",gelatinase B,64%
same,"Average Percent Inhibition, 4.10-5.10 h, TypeIICOL 44 ug/ul",gelatinase B,85%
same,"Average Percent Inhibition, 4.10-5.10 h, TypeIICOL .18 ug/ul",gelatinase B,7%
same,"Average Percent Inhibition, 4.10-5.10 h, TypeIICOL .55 ug/ul",gelatinase B,8%
same,"Average Percent Inhibition, 5.10-6.10 h, TypeIICOL 1.6 ug/ul",gelatinase B,7%
same,"Average Percent Inhibition, 5.10-6.10 h, TypeIICOL 4.9 ug/ul",gelatinase B,30%
same,"Average Percent Inhibition, 5.10-6.10 h, TypeIICOL 15 ug/ul",gelatinase B,59%
same,"Average Percent Inhibition, 5.10-6.10 h, TypeIICOL 44 ug/ul",gelatinase B,83%
same,"Average Percent Inhibition, 5.10-6.10 h, TypeIICOL .18 ug/ul",gelatinase B,5%
same,"Average Percent Inhibition, 5.10-6.10 h, TypeIICOL .55 ug/ul",gelatinase B,6%
same,"Average Percent Inhibition from 1.1 to 6.6 Hours, Type II Collagen 0.18 ug/ml",[1],-8%
same,"Average Percent Inhibition from 1.1 to 6.6 Hours, Type II Collagen 0.54 ug/ml",[1],-11%
same,"Average Percent Inhibition from 1.1 to 6.6 Hours, Type II Collagen 1.63 ug/ml",[1],-11%
same,"Average Percent Inhibition from 1.1 to 6.6 Hours, Type II Collagen 4.89 ug/ml",[1],-28%
same,"Average Percent Inhibition from 1.1 to 6.6 Hours, Type II Collagen 14.67 ug/ml",[1],-44%
same,"Average Percent Inhibition from 1.1 to 6.6 Hours, Type II Collagen 44.00 ug/ml",[1],-53%
same,"Average Percent Inhibition, 0.10-1.10 h, TypeIICOL 1.6 ug/ul",[1],16%
same,"Average Percent Inhibition, 0.10-1.10 h, TypeIICOL 4.9 ug/ul",[1],8%
same,"Average Percent Inhibition, 0.10-1.10 h, TypeIICOL 15 ug/ul",[1],6%
same,"Average Percent Inhibition, 0.10-1.10 h, TypeIICOL 44 ug/ul",[1],2%
same,"Average Percent Inhibition, 0.10-1.10 h, TypeIICOL .18 ug/ul",[1],6%
same,"Average Percent Inhibition, 0.10-1.10 h, TypeIICOL .55 ug/ul",[1],14%
same,"Average Percent Inhibition, 1.10-2.10 h, TypeIICOL 1.6 ug/ul",[1],-4%
same,"Average Percent Inhibition, 1.10-2.10 h, TypeIICOL 4.9 ug/ul",[1],-31%
same,"Average Percent Inhibition, 1.10-2.10 h, TypeIICOL 15 ug/ul",[1],-48%
same,"Average Percent Inhibition, 1.10-2.10 h, TypeIICOL 44 ug/ul",[1],-55%
same,"Average Percent Inhibition, 1.10-2.10 h, TypeIICOL .18 ug/ul",[1],-9%
same,"Average Percent Inhibition, 1.10-2.10 h, TypeIICOL .55 ug/ul",[1],-11%
same,"Average Percent Inhibition, 2.10-3.10 h, TypeIICOL 1.6 ug/ul",[1],-15%
same,"Average Percent Inhibition, 2.10-3.10 h, TypeIICOL 4.9 ug/ul",[1],-38%
same,"Average Percent Inhibition, 2.10-3.10 h, TypeIICOL 15 ug/ul",[1],-59%
